Measured values reported in US20180094275A1 (AGRESEARCH, published 2018).

B1: Y2H PPD1-DBD (PPD1 fused to GAL4 DNA binding domain) (other)
chain: MKLLSSIEEACNICRLKKLKCSKEKPKCAKCLKNNWECRYSPKTKRSPLTRAHLTEVESRLERLEQLFLLIFPRENLNMILKMDSLQDIKALLTGLFVQDNVNKDAVTDRLASVETDMPLTLRQHRISATSSSEESSNKGQRQLTVSSRSNQTSLYKKAGSMDVGVSPAKSILAKPLKLLTEEDISQLTREDCRKFLKDKGMRRPSWNKSQAIQQVLSLKALYEPGDDSGAGIFRKILVSQPVNPPRVTTTLIEPSNELEACGRVSYPEDNGACHRMDSPRSAEFSGGSGHFVSEKDGHKTTISPRSPAETSELVGQMTIFYSGKVNVYDGIPPEKARSIMHFAANPIDLPENGIFASSRMISKLISKEKMMELPQKGLEKANSSRDSGMEGQANRKVSLQRYREKRKDRKFSKAKKCPGVASSSLEMFLNCQPRMKAAYSQNLGCTGSPLHSQSPESQTKSPNLSVDLNSEGI
notes: Bait fusion expressed in yeast MaV203; also called pDEST32-PPD1; PPD1 bait
B2: Y2H TPL-DBD (TOPLESS fused to GAL4 DNA binding domain) (other)
chain: MKLLSSIEEACNICRLKKLKCSKEKPKCAKCLKNNWECRYSPKTKRSPLTRAHLTEVESRLERLEQLFLLIFPRENLNMILKMDSLQDIKALLTGLFVQDNVNKDAVTDRLASVETDMPLTLRQHRISATSSSEESSNKGQRQLTVSSRSNQTSLYKKAGSMSSLSRELVFLILQFLDEEKFKETVHKLEQESGFFFNMKYFEDEVHNGNWDEVEKYLSGFTKVDDNRYSMKIFFEIRKQKYLEALDKHDRPKAVDILVKDLKVFSTFNEELFKEITQLLTLENFRENEQLSKYGDTKSARAIMLVELKKLIEANPLFRDKLQFPTLRNSRLRTLINQSLNWQHQLCKNPRPNPDIKTLFVDHSCGPPNGARAPSPVNNPLLGGIPKAGGFPPLGAHGPFQPTASPVPTPLAGWMSSPSSVPHPAVSAGAIALGGPSIPAALKHPRTPPTNASLDYPSADSEHVSKRTRPMGISDEVNLGVNMLPMSFSGQAHGHSPAFKAPDDLPKTVARTLSQGSSPMSMDFHPIKQTLLLVGTNVGDIGLWEVGSRERLVQKTFKVWDLSKCSMPLQAALVKEPVVSVNRVIWSPDGSLFGVAYSRHIVQLYSYHGGEDMRQHLEIDAHVGGVNDISFSTPNKQLCVITCGDDKTIKVWDAATGVKRHTFEGHEAPVYSVCPHYKENIQFIFSTALDGKIKAWLYDNMGSRVDYDAPGRWCTTMAYSADGTRLFSCGTSKDGESFIVEWNESEGAVKRTYQGFHKRSLGVVQFDTTKNRYLAAGDDFSIKFWDMDAVQLLTAIDGDGGLQASPRIRFNKEGSLLAVSGNENVIKIMANSDGLRLLHTFENISSESSKPAINSIAAAAAAAATSAGHADRSANVVSIQGMNGDSRNMVDVKPVITEESNDKSKIWKLTEVSEPSQCRSLRLPENLRVAKISRLIFTNSGNAILALASNAIHLLWKWQRNERNATGKATASLPPQQWQPASGILMTNDVAETNPEEAVPCFALSKNDSYVMSASGGKISLFNMMTFKTMATFMPPPPAATFLAFHPQDNNIIAIGMDDSTIQIYNVRVDEVKSKLKGHSKRITGLAFSNVLNVLVSSGADAQLCVWNTDGWEKQRSKVLPLPQGRPNSAPSDTRVQFHQDQAHFLVVHETQLAIYETTKLECMKQWAVRESLAPITHATFSCDSQLVYASFMDATVCVFSSANLRLRCRVNPSAYLPASLSNSNVHPLVIAAHPQEPNMFAVGLSDGGVHIFEPLESEGKWGVAPPAENGSASGAPTAPSVGASASDQPQR
notes: Bait fusion; also called pDEST32-TPL

Tests used:
[1] = molecular target: T1, Y2H BZR1-AD (BZR1 fused to GAL4 activation domain) (Arabidopsis thaliana); assay: yeast two-hybrid (ProQuest, MaV203)
T1 construct: Prey fusion; also called pDEST22-BZR1
T1 chain: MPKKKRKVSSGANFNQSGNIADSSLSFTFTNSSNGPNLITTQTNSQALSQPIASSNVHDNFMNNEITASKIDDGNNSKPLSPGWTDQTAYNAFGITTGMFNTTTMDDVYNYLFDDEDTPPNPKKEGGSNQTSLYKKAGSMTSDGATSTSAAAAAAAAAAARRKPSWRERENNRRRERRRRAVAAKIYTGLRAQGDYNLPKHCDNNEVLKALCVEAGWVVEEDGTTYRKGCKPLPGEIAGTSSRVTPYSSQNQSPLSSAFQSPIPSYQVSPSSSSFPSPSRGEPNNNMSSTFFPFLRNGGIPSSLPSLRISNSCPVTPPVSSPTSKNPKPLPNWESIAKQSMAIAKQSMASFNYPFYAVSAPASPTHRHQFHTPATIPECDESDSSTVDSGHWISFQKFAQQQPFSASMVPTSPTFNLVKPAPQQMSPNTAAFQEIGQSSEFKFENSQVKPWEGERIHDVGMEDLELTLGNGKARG

[2] = molecular target: T2, Y2H NINJA-AD (NINJA fused to GAL4 activation domain) (Arabidopsis thaliana); assay: yeast two-hybrid
T2 construct: Prey fusion; also called pDEST22-NINJA
T2 chain: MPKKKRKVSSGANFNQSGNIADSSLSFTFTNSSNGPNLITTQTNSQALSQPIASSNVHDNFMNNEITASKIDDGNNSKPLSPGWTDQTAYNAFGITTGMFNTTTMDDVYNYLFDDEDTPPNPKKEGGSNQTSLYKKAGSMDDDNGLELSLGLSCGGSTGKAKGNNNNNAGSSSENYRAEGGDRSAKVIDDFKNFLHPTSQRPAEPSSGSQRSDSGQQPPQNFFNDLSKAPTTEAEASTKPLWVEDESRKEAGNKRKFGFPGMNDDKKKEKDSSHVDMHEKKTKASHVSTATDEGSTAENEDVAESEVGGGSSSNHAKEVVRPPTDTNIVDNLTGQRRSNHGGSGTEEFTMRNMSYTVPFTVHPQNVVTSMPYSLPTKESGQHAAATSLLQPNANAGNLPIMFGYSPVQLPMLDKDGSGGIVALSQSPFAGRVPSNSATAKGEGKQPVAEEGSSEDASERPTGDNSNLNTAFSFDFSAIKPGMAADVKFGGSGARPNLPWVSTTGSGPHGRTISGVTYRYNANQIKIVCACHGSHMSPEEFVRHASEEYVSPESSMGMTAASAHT

[3] = molecular target: T3, Y2H PPD1-AD (PPD1 fused to GAL4 activation domain) (Arabidopsis thaliana); assay: yeast two-hybrid
T3 construct: Prey fusion; also called pDEST22-PPD1
T3 chain: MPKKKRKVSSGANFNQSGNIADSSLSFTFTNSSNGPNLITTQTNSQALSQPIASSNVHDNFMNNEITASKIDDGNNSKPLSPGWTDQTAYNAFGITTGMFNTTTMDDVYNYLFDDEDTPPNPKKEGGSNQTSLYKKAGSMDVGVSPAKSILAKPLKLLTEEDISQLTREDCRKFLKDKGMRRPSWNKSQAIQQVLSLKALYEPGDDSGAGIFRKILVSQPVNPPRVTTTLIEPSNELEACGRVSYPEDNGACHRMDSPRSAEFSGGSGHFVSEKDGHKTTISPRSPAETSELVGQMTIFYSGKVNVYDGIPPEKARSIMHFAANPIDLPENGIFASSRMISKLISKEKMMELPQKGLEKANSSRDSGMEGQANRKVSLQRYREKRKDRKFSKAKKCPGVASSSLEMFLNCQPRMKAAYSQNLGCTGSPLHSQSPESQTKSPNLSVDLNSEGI

[4] = molecular target: T4, Y2H RGA1-AD (DELLA protein RGA1 fused to GAL4 activation domain); assay: yeast two-hybrid, PPD1-DBD as bait, selective medium with 15 mM 3AT
T4 construct: Prey fusion tested against PPD1-DBD as bait; also called DELLA (RGA1)
T4 chain: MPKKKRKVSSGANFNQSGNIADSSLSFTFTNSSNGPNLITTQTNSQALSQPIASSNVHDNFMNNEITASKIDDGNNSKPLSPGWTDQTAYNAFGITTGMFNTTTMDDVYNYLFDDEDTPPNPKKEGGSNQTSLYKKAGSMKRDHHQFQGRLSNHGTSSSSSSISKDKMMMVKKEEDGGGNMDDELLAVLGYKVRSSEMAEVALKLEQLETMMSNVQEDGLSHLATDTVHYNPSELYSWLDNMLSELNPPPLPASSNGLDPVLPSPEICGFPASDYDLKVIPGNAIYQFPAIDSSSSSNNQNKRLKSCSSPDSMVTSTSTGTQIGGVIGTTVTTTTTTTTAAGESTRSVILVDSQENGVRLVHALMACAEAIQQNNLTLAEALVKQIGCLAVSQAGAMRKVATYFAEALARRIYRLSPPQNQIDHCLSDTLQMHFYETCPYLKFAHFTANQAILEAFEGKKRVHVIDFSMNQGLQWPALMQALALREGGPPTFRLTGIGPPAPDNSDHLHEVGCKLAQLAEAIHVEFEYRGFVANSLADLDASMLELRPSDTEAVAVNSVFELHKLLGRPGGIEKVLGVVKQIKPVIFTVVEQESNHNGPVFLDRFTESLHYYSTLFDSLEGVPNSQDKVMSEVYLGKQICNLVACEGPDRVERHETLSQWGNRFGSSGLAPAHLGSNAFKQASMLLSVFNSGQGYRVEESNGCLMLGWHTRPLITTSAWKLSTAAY

[5] = molecular target: T1, Y2H BZR1-AD (BZR1 fused to GAL4 …); assay: yeast two-hybrid

| Binder | binding result [1] | binding result [2] | binding result [3] | binding result [4] | binding result [5] |
| --- | --- | --- | --- | --- | --- |
| B1 | no binding | binds | binds | binds | – |
| B2 | – | binds | – | – | binds |
